Results: patent US20140323400A1 (ASSOCIATION FRANCAISE CONTRE LES MYOPATHIES, published 2014)
The star is where a group is joined. Biotin = O=C1N[C@H]2[C@H](CS[C@H]2CCCCC(=O)*)N1

Biological target: T1, mature myostatin (UniProt O08689 268-376, limits assumed)
T1 construct: mature; also called MSTN
T1 sequence (looked up): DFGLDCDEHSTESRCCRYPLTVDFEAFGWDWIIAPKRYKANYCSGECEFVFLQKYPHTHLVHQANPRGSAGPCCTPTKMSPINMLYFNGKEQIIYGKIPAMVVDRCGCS
Assay: ELISA, biotinylated peptide on coated myostatin, with or without zinc
Experimental: For this, 3 μl of myostatin at a concentration of 100 ng/μl are taken up in 50 μl of carbonate buffer and added to each well of the assay plate (R&D Systems DY990). After an overnight incubation at 4° C., the plate is washed with 100 μl of PBS-Tween (0.05% Tween 20), then the blocking step to saturate non-specific sites is carried out for 2 hours at room temperature with 100 μl of PBS and 6% of milk per well. Five successive washes with 200 μl of PBS-Tween (0.05% Tween 20) are performed and increasing amounts of biotinylated fibromodulin peptides are then deposited (100 μl final in PBS) and the plate is incubated for 1 hour at 37° C. For the positive control, an antibody of goat anti-myostatin (≠AF788, R&D Systems), which was deposited in the control wells and incubated for 1 hour at 1/100th (0.1 mg/ml) was […]. The wells were then washed 5 times with PBS-Tween (0.05% Tween 20). […] After five washes, adding the peroxidase substrate, the TMB Substrate Reagent Set (Tetramehylbenzidine, OptEIA, ≠555214) allows the obtention of a colored reaction proportional to the quantity of HRP present in the wells. The reaction is stopped after 20 minutes by addition of sulfuric acid 2N, and the plate is read at 450 nm on a Discovery HT-R spectrophotometer (Bio-TEK).

binding result: no binding
B1: Peptide Biotine-69-101 mFibromoduline mutated (Fmod mutated) (peptide)
peptide: Biotin-PPPEPRDCPQEADAPPNFPTAMYADNRNLKYLP-NH2
SMILES: CSCC[C@H](NC(=O)[C@H](C)NC(=O)[C@@H](NC(=O)[C@@H]1CCCN1C(=O)[C@H](Cc1ccccc1)NC(=O)[C@H](CC(N)=O)NC(=O)[C@@H]1CCCN1C(=O)[C@@H]1CCCN1C(=O)[C@H](C)NC(=O)[C@H](CC(=O)O)NC(=O)[C@H](C)NC(=O)[C@H](CCC(=O)O)NC(=O)[C@H](CCC(N)=O)NC(=O)[C@@H]1CCCN1C(=O)[C@H](CS)NC(=O)[C@H](CC(=O)O)NC(=O)[C@H](CCCNC(=N)N)NC(=O)[C@@H]1CCCN1C(=O)[C@H](CCC(=O)O)NC(=O)[C@@H]1CCCN1C(=O)[C@@H]1CCCN1C(=O)[C@@H]1CCCN1C(=O)CCCC[C@@H]1SC[C@@H]2NC(=O)N[C@@H]21)[C@@H](C)O)C(=O)N[C@@H](Cc1ccc(O)cc1)C(=O)N[C@@H](C)C(=O)N[C@@H](CC(=O)O)C(=O)N[C@@H](CC(N)=O)C(=O)N[C@@H](CCCNC(=N)N)C(=O)N[C@@H](CC(N)=O)C(=O)N[C@@H](CC(C)C)C(=O)N[C@@H](CCCCN)C(=O)N[C@@H](Cc1ccc(O)cc1)C(=O)N[C@@H](CC(C)C)C(=O)N1CCC[C@H]1C(N)=O
notes: also called mutated biotin mFmod peptide
